What was measured:
[1] = biological target: T1, GST-nup42-CTD/MBP-gle1-CTD^H337R/dbp5^L327V trimeric complex (Saccharomyces cerevisiae, UniProt P20449+Q12315, P20449:L327V/Q12315:H337R); test: GST pull-down, IP6-dependent complex formation; type: binding; conditions: 50 uM IP6, pH 7.5, 4 C; indirect read-out by complex formation
T1 sequence (Q12315 244-538 H337R): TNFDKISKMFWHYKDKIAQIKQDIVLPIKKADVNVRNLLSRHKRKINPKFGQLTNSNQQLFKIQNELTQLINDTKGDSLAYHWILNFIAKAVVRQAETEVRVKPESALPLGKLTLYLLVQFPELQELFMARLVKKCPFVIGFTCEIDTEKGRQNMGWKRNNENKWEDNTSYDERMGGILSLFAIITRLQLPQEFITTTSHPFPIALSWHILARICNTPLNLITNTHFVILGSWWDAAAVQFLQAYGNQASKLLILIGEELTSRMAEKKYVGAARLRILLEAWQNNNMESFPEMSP
T1 sequence (P20449 1-482 L327V): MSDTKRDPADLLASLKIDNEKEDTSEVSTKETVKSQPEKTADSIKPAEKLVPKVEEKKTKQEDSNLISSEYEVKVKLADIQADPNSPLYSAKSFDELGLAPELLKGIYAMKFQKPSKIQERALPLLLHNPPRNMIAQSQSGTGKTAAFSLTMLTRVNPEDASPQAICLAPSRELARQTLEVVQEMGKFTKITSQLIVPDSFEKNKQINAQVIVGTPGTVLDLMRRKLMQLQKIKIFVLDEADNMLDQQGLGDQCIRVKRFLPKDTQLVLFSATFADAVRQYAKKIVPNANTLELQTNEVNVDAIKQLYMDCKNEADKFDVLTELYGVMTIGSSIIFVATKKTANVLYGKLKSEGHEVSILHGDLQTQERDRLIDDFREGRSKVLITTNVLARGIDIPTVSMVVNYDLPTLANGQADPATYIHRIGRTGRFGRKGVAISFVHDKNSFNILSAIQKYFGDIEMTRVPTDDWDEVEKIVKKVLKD
T1 sequence (P49686 365-430 partner): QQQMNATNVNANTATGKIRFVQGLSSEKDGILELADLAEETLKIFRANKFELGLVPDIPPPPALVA

[2] = biological target: biotin-nup42^408–424 peptide (S. cerevisiae) (UniProt P49686); test: BLI

Compound | GST pull-down, IP6-dependent complex formation (SDS-PAGE) [1] | Kd [2] [nM]
O=P(O)(O)O[C@H]1[C@H](OP(=O)(O)O)[C@@H](OP(=O)(O)O)[C@H](OP(=O)(O)O)[C@@H](OP(=O)(O)O)[C@H]1OP(=O)(O)O [IP6] | complex was observed only in the presence of IP6 | –
MBP-gle1-CTD (from UniProt Q12315 1-538) (domain or fragment) | – | 91.5
MBP-gle1-CTD^QKEE>AAAA (from UniProt Q12315 1-538) (domain or fragment) | – | 599
